Changes are numbered by the printed parent chain. Names may count otherwise.

These results are taken from patent US20240166750A1 (published 2024).

Test [1] deals with T1, Recombinant human FcγRIIIa-V158 (human, UniProt P08637 17-208). Description: SPR; -kif. Background: In SPR one partner is held on a chip, and binding of the other changes the refractive index at the surface.
Test [2] deals with T1, Recombinant human FcγRIIIa-V158. Description: SPR; +kif.

T1 sequence (P08637 17-208 F176V): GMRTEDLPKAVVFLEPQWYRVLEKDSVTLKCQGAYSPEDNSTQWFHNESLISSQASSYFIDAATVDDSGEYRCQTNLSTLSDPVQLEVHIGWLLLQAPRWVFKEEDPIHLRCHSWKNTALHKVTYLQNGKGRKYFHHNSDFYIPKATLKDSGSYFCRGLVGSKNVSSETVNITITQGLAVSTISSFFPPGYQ

B1: human IgG1 antibody specific for protein 4, S239D/S298A + R292C/V302C, -Kif (antibody)
chain: ASTKGPSVFPLAPSSKSTSGGTAALGCLVKDYFPEPVTVSWNSGALTSGVHTFPAVLQSSGLYSLSSVVTVPSSSLGTQTYICNVNHKPSNTKVDKKVEPKSCDKTHTCPPCPAPELLGGPDVFLFPPKPKDTLMISRTPEVTCVVVDVSHEDPEVKFNWYVDGVEVHNAKTKPCEEQYNATYRCVSVLTVLHQDWLNGKEYKCKVSNKALPAPIEKTISKAKGQPREPQVYTLPPSRDELTKNQVSLTCLVKGFYPSDIAVEWESNGQPENNYKTTPPVLDSDGSFFLYSKLTVDKSRWQQGNVFSCSVMHEALHNHYTQKSLSLSPGK
What is called Kd is a measure of binding affinity in units of concentration. In the case of B1, the Kd in test [1] came to 41.8 nM.

B2: human IgG1 antibody specific for protein 4, S239D/S298A + T256D/T307Q, +Kif (antibody)
chain: B1 chain with T139D, C175R, C185V, T190Q
For the molecule B2, the Kd in test [2] came to 14 nM.

B3: human IgG1 antibody specific for protein 4, S239D/I332E + R292C/V302C, +Kif (antibody)
chain: B1 chain with A181S, I215E
Regarding B3, in test [2], the Kd stood at 5.46 nM.

B4: human IgG1 antibody specific for protein 4, T256D/T307Q + R292C/V302C, +Kif (antibody)
chain: B1 chain with D122S, T139D, A181S, T190Q
Consider B4, for which the Kd in test [2] amounted to 153 nM.

B5: human IgG1 antibody specific for protein 4, S239D/I332E + T256D/T307Q + R292C/V302C, -Kif (antibody)
chain: B1 chain with T139D, A181S, T190Q, I215E
For B5, in test [1], the dissociation constant Kd was found to be 15.1 nM.

B6: human IgG1 antibody specific for protein 4, S239D + T256D/T307Q, +Kif (antibody)
chain: B1 chain with T139D, C175R, A181S, C185V, T190Q
Turning to B6, the Kd in test [2] was 19.7 nM.

B7: human IgG1 antibody specific for protein 4, S239D/S298A + T256D/T307Q, -Kif (antibody)
chain: B1 chain with T139D, C175R, C185V, T190Q
As for B7, in test [1], the Kd amounted to 30.7 nM.

B8: human IgG1 antibody specific for protein 4, S239D + T256D/T307Q + R292C/V302C, -Kif (antibody)
chain: B1 chain with T139D, A181S, T190Q
As for B8, in test [1], the Kd was found to be 87.5 nM.

B9: human IgG1 antibody specific for protein 4, S239D/I332E + T256D/T307Q, -Kif (antibody)
chain: B1 chain with T139D, C175R, A181S, C185V, T190Q, I215E
For the molecule B9, the Kd in test [1] worked out at 12.3 nM.

B10: human IgG1 antibody specific for protein 4, S239D/S298A + T256D/T307Q + R292C/V302C, +Kif (antibody)
chain: B1 chain with T139D, T190Q
Consider B10, for which the Kd in test [2] worked out at 12.8 nM.

B11: human IgG1 antibody specific for protein 4, S239D + R292C/V302C, -Kif (antibody)
chain: B1 chain with A181S
B11: in test [1], the dissociation constant Kd is 68.6 nM.

B12: human IgG1 antibody specific for protein 4, S239D + T256D/T307Q, -Kif (antibody)
chain: B1 chain with T139D, C175R, A181S, C185V, T190Q
In the case of B12, the dissociation constant Kd in test [1] worked out at 60.4 nM.

B13: human IgG1 antibody specific for protein 4, S239D/I332E + T256D/T307Q, +Kif (antibody)
chain: B1 chain with T139D, C175R, A181S, C185V, T190Q, I215E
Turning to B13, in test [2], the Kd was 7.59 nM.

B14: human IgG1 antibody specific for protein 4, S239D/S298A + R292C/V302C, +Kif (antibody)
chain: B1 chain
On to B14, for which, in test [2], the Kd amounted to 8.76 nM.

B15: human IgG1 antibody specific for protein 4, S239D + T256D/T307Q + R292C/V302C, +Kif (antibody)
chain: B1 chain with T139D, A181S, T190Q
As to B15, the dissociation constant Kd in test [2] amounted to 13.1 nM.

B16: human IgG1 antibody specific for protein 4, S239D/I332E + R292C/V302C, -Kif (antibody)
chain: B1 chain with A181S, I215E
Take B16: in test [1], the Kd was 11.1 nM.

B17: human IgG1 antibody specific for protein 4, S239D/I332E + T256D/T307Q + R292C/V302C, +Kif (antibody)
chain: B1 chain with T139D, A181S, T190Q, I215E
B17: the Kd in test [2] is 5.24 nM.

B18: human IgG1 antibody specific for protein 4, T256D/T307Q + R292C/V302C, -Kif (antibody)
chain: B1 chain with D122S, T139D, A181S, T190Q
Turning to B18, the Kd in test [1] was 410 nM.

B19: human IgG1 antibody specific for protein 4, S239D + R292C/V302C, +Kif (antibody)
chain: B1 chain with A181S
Consider B19, for which the dissociation constant (Kd) in test [2] came out at 8.97 nM.
